# Test results from article PMC9779928, “Tartrate resistant acid phosphatase 5 (TRAP5) mediates immune cell recruitment in a murine model of pulmonary bacterial infection” (Frontiers in Immunology, 2022).
# Ends that are not written are not given here.
# Assays:
# [1] = target: T1, dephosphorylated (non-phosphorylated) osteopontin (recombinant human OPN expressed in E. coli) (human, UniProt P10451 17-314); experiment: SPR; hBD3, SLPI and LL37 immobilised in different flow cells (50 ug/mL in 10 mM sodium acetate pH 5.5); dOPN or pOPN flowed at 10 uL/min; BIAcore X100, 25°C, HBS-EP (10 mM HEPES, 150 mM NaCl, 3 mM EDTA, 0.05% surfactant P20, pH 7.4); Langmuir model; settings: both partners purified
# T1 construct: osteopontin (OPN), human, recombinant, expressed in E. coli, non-phosphorylated; Commercial protein; Called 'dephosphorylated' but it is simply made in E. coli (non-phosphorylated), not treated with a phosphatase; also called dOPN; SPP1; source: bought: Abcam (expressed in E. coli; purity >= 90% according to the manufacturer)
# [2] = target: T2, phosphorylated osteopontin (recombinant human OPN derived from HEK293 cells) (human, UniProt P10451 17-314, phosphorylated (sites not given; phosphorylation pattern in Supplementary Figure 2)); experiment: as above; settings: both partners purified
# T2 construct: osteopontin (OPN), human, recombinant, expressed in HEK293 cells; Commercial protein; From a eukaryotic host, so it probably differs from dOPN in glycosylation as well as in phosphorylation; also called pOPN; SPP1; source: bought: Peprotech (expressed in HEK293 cells; purity >= 97% according to the manufacturer)
# T2 sequence (P10451 17-314): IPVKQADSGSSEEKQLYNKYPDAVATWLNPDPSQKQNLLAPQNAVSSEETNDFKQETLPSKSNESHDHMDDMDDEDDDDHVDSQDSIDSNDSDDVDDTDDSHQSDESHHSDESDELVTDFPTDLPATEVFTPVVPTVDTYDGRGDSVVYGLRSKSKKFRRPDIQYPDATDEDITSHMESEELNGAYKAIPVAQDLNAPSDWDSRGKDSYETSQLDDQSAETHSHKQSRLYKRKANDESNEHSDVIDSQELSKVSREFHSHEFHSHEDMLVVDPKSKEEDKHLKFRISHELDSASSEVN
# T1 sequence (P10451 17-314): as above
Binder,Kd [1],Kd [2]
"secretory leukocyte protease inhibitor (natural protein, UniProt P03973 26-132, looked up, Commercial protein; also called SLPI; source: bought: Abcam) SGKSFKAGVCPPKKSAQCLRYKKPECQSDWQCPGKKRCCPDTCGIKCLDPVDTPNPTRRKPGKCPVTYGQCLMLNPPNFCEMDGQCKRDLKCCMGMCGKSCVSPVKA",4650 nM,6.25 nM
"GIINTLQKYYCRVRGGRCAVLSCLPKEEQIGKCSTRGRKCCRRKK (peptide, UniProt P81534 23-67, looked up, ends and bridges not checked; cysteine pairing not given here, human beta-defensin 3 (hBD-3), antimicrobial peptide; also called hBD3; hBD-3; source: bought: Abcam) [human β-defensin-3]",83.8 nM,6.5 nM
